Data: US20240317842A1 (HOSPITAL FOR SICK CHILDREN, published 2024)

Biological target: T1, 32-N MB.v3
T1 construct: Self-assembled apoferritin nanocage (Multabody), plasmids co-transfected 3:1:1; monomeric IgG1 Fc chain at the C-terminus of C-ferritin, which dimerises in the particle; also called Multabody.v3; T-01 MBv2
Assay: BLI, His-tagged FcγRIIa on Ni-NTA biosensors, Multabody in solution [8f]

B1: FcRIIa (receptor, human, UniProt P12318 34-217, looked up)
receptor chain: QAAAPPKAVLKLEPPWINVLQEDSVTLTCQGARSPESDSIQWFHNGNLIPTHTQPSYRFKANNNDSGEYTCQTGQTSLSDPVHLTVLSEWLVLQTPHLEFQEGETIMLRCHSWKDKPLVKVTFFQNGKSQKFSHLDPTFSIPQANHSHSGDYHCTGNIGYTLFSSKPVTITVQVPSMGSSSPMG
notes: His-tagged ligand loaded on Ni-NTA biosensors; also called FcγRIIa
B1: no binding.
